According to PMC8791620 (Science Advances, 2022):

T1: Trs33 (subunit of core TRAPP/TRAPPI in TRAPPII) (S. cerevisiae, UniProt Q99394 1-268)
T1 sequence (looked up): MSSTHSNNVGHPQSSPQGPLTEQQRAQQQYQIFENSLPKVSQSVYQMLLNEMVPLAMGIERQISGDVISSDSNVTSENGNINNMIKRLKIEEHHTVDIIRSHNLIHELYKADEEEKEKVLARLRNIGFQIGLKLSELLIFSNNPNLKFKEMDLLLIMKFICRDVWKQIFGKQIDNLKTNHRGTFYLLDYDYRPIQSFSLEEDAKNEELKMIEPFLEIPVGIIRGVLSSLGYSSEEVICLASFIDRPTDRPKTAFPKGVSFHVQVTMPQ

T2: Trs120 (3xFLAG-tagged, subunit of TRAPPII) (S. cerevisiae, UniProt Q04183 1-1289)
T2 sequence: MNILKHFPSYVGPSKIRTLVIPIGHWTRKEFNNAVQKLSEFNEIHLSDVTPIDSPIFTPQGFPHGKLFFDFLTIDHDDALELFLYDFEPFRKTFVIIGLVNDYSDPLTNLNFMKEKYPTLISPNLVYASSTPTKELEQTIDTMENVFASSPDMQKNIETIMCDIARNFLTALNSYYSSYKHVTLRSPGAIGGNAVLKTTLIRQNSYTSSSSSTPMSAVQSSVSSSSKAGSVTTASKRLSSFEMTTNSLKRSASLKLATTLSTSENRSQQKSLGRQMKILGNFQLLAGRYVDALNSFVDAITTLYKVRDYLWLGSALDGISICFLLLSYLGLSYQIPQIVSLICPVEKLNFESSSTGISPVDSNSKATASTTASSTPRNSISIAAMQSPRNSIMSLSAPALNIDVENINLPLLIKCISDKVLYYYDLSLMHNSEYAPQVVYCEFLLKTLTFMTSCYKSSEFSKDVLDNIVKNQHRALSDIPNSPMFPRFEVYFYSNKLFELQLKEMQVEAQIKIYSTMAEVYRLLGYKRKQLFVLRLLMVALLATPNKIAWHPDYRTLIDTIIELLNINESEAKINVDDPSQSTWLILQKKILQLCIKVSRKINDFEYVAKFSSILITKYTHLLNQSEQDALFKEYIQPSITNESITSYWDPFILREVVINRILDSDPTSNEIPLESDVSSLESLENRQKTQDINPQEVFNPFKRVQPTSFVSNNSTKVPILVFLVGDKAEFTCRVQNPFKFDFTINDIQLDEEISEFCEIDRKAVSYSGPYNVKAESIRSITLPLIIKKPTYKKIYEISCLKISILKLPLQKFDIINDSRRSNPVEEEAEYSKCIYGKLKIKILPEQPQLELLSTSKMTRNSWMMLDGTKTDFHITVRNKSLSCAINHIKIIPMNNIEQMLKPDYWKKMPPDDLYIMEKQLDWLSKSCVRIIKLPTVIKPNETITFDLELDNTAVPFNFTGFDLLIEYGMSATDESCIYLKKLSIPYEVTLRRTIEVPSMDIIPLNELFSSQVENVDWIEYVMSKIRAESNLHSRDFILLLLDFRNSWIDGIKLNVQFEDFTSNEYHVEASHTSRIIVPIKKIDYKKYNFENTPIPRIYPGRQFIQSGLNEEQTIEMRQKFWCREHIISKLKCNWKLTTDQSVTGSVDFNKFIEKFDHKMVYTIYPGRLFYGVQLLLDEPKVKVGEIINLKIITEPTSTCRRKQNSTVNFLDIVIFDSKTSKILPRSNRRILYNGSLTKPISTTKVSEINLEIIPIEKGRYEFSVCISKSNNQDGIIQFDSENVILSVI

T3: Trs23 (subunit of core TRAPP/TRAPPI in TRAPPII) (S. cerevisiae, UniProt Q03784 1-219)
T3 sequence (looked up): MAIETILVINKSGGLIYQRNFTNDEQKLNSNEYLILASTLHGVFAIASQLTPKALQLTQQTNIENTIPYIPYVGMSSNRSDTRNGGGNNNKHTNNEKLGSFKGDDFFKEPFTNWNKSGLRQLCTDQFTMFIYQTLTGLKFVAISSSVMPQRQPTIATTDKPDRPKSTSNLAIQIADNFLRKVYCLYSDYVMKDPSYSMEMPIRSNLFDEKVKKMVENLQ

T4: Trs31 (subunit of core TRAPP/TRAPPI in TRAPPII) (S. cerevisiae, UniProt Q03337 1-283)
T4 sequence (looked up): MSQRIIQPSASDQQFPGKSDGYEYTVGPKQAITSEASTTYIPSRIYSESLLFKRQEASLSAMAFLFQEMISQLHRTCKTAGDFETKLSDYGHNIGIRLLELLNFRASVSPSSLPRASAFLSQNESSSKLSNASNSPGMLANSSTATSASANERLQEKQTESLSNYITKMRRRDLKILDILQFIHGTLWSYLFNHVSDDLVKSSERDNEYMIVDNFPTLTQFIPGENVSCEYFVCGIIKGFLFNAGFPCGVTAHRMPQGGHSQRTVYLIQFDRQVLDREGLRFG

B1: Tca17 (subunit of TRAPPII) (natural protein, S. cerevisiae, UniProt P32613 1-152, looked up)
chain: MSLRPCFVSLIDESDKPILIYVPNEAENEMNDVLKYNVLSNISLDYFESALVEWHSLDSKPLLKSIFQLEGVSVFAMLIKQTGLKIVIGFEQKSLSGADDEFEAINQIFETVRKIYIRVKCNPLLVSGDEKSIIKSLERKFDELFISTEVEL
B2: Trs65 (subunit of TRAPPII) (natural protein, S. cerevisiae, UniProt P32893 1-560, looked up)
chain: MECFVPLRCDLDGSNIEQLRQSHLSRKFIIFDEQLNLWLWFQGNSQENKRFVLQNMIILINEAQVTRTSTIDDYFTQVENNENLWRLKNDCCSKILFKSNVVMNNGYNNQIKFVFEYKSVDANFNNQDSLQDPQAKYTLDKYSSEEILPSFEPVYSWSSAATKSSKNTNNHLEKNNRATHRVSSKNSEVHEADVSRNPNTFTLKLQYPIFSLLNMRLRNISLKSEHCILSSLDFQTSKASEQLTKKFIYPQEHNSFLKLNFQEISYKLIDGTSQIELDPICPLKVPLTAFSYDSISATFKLVLLPKSTQPHRVKITLAYELELHPNLKLPVRTSWETEVTLKRSMPISSTSSQYSSNNNNTNHSASFNGAANNVNSGGLANLRLGGVSSSRFSLGAASTTSLVNSKLSNVKFKFINSNIKVIKGEKFTMRLQIINSSSSPLDLVVYYNNTINPIPSANNVRNSNGINNCGMNNGTIPNSPLTLENQYQLHNKYRKIAEGIILLSNDYKIPVVPPRETYFADLRFIGIMSGYYGTLSGLKVLDLNTNELIEVGNGASVLIQ
B3: Trs130 (subunit of TRAPPII) (natural protein, S. cerevisiae, UniProt Q03660 1-1102, looked up)
chain: MDKEIYCGSVPVSYFDPFDLFESLRPEFQQILPLDNIHWKAFDGTVRTVNRLPIELIPEGRGEADKSNDEQPFIRFLIVNCISIDQYRAKVRPLVRQWLPNLESVSSSTGEKMIYKPIILLYANSEVVDSNLFKSVSLMEKFGKDFPHVQTLEVRSVYRSPKERQEFWNQFSQKIKASVLSIFQKRLTHLQHSLANLQKGNNFEEQLLTREKLYELYVVFNILEDASLELQKIKKEILRRNMNMPDGKLQVPFESSSKSDESLGSIIIEGTLDKFQLHKYFFIRRLRLLKLEDQTLTAFVGAFQLIKNFIESISIEYRKSVRLLEFKHYFITSMLSYFEFENVSNPLLCEIKAELLMLKRDNWVQGVMATSGYRLMDKNYPNSDVKYKFDLLKETFVDETVFQENFLTLTKEILSLFNKCEGKRQRIVDILSIEIGLLYYQGKKYEEAVSLFLSCYEYYTQTNWNSIGLKILQVFIDSLSHCPKLDVLQIDGESVSASAVLTNAFLNILKLCKDNDSKEIWWKKFMDLQMKNNIHLMYPLDGLFEVTLNSKVHLARANVSAIEVNLKSYGFPEDISTKTMRLSLKNMGGDVIVFGASDFLLKKGENKLILECRDIMYGEFSLLSFEIIVEGITFVKEFPENQDEFIVVPEIYCKESTKVLVKQAHNLNLGEYALELKSVQSDALESLQVEVEVQKNIGNMKNLPVSFSMDEIQARKRYNTPFENVRLEYYLLDQITAFDLIIKTSFTKKNDQGTFGETKKVRIQCYLQLSVSVEDIFKKDIFFFKFLLNSSVREEPVILYSSELSAPDTRNDYNIRGDYIATTPALITFDGNESFINCYEITANNNFDSKDIFNLKVRYNTLKEQLDCFITDAVLIEGDVEWFILFEKWKTFWELEILKKLKYDYDAFKENRIIRLLKTSIDLNKTKSKIRNLCIEKAVLDKILICLNKVSRGIAVCNTDMDEYVRNLVPKQLTVPVQLPGFEQFFHVQFEQMETSHDALHDTIATIGNSLSYTVIVENLSGQWGQDVIDDGGYIFEILSSNEWLIHGQKRCAIKEKRKEFEVHLIPLKKGYLNFPRVEITNINGKSCRVDHSNAFESILIF
B4: Bet3 (subunit of core TRAPP/TRAPPI in TRAPPII) (natural protein, S. cerevisiae, UniProt P36149 1-193, looked up)
chain: MVSTTQSRSLKAMGEEIWKNKTEKINTELFTLTYGSIVAQLCQDYERDFNKVNDHLYSMGYNIGCRLIEDFLARTALPRCENLVKTSEVLSKCAFKIFLNITPNITNWSHNKDTFSLILDENPLADFVELPMDAMKSLWYSNILCGVLKGSLEMVQLDCDVWFVSDILRGDSQTEIKVKLNRILKDEIPIGED
B5: Trs20 (subunit of core TRAPP/TRAPPI in TRAPPII) (natural protein, S. cerevisiae, UniProt P38334 1-175, looked up)
chain: MPQYFAIIGKKDNPVYEIEFTNAENPQGFPQDLKELNPFILHASLDIVEDLQWQINPTSQLNGNGGNGSNGGGGFLRSRAVNNTDNCYLGKVDHFYGLAITAYISYSGMKFVMIHGNSANSSVVIDDNNMRSFYQEVHELYVKTLMNPFYKITDPIRSPAFDSRVRTLARKHLSK

Columns and labels:
Assay in all cases: cryo-EM structure
[1] = biological target: B3
[2] = biological target: T1, Trs33 (subunit of core TRAPP/TRAPPI in …)
[3] = biological target: T2, Trs120 (3xFLAG-tagged, subunit of …)
[4] = biological target: T3, Trs23 (subunit of core TRAPP/TRAPPI in …)
[5] = biological target: T4, Trs31 (subunit of core TRAPP/TRAPPI in …)

| binding result [1] | binding result [2] | binding result [3] | binding result [4] | binding result [5] | Binder |
| --- | --- | --- | --- | --- | --- |
| binds | binds | – | – | – | B1 |
| binds | – | binds | – | – | B2 |
| – | – | binds | – | – | B3 |
| – | binds | – | binds | binds | B4 |
| – | – | binds | – | binds | B5 |
